Blank lines part the entries; values can stand above or below the substance they belong to.
Assays:
Syk SH2 domains = Syk SH2 domains (UniProt P43405); test: SPR; conditions: reference: unphosphorylated peptide; sites Y211,Y237
[1] = biological target: SHP-1 tandem (N+C) SH2 domains (UniProt P29350); test: SPR, 37°C
[2] = biological target: SHP-2 C-terminal SH2 domain (UniProt Q06124); test: SPR, 37°C; conditions: reference: unphosphorylated peptide; sites Y211,Y237
[3] = biological target: SHP-2 tandem (N+C) SH2 domains (UniProt Q06124); test: SPR, 37°C
[4] = biological target: SHP-1 tandem (N+C) SH2 domains (UniProt P29350); test: SPR kinetics, 37°C; conditions: reference: unphosphorylated peptide; sites Y211,Y237
[5] = biological target: SHP-2 tandem (N+C) SH2 domains (UniProt Q06124); test: SPR kinetics, 37°C; conditions: reference: unphosphorylated peptide
[6] = biological target: SHP-1 tandem (N+C) SH2 domains (UniProt P29350); test: direct peptide pull-down, Coomassie gel
[7] = biological target: SHP-2 C-terminal SH2 domain (UniProt Q06124); test: direct peptide pull-down, Coomassie gel; conditions: reference: unphosphorylated peptide; sites Y211,Y237
[8] = biological target: SHP-2 N-terminal SH2 domain (UniProt Q06124); test: direct peptide pull-down, Coomassie gel; conditions: reference: unphosphorylated peptide; sites Y211,Y237
[9] = biological target: SHP-2 tandem (N+C) SH2 domains (UniProt Q06124); test: direct peptide pull-down, Coomassie gel
[10] = biological target: Syk tandem (N+C) SH2 domains (UniProt P43405); test: direct peptide pull-down, Coomassie gel; conditions: reference: unphosphorylated peptide; sites Y211,Y237
SHP-2 = SHP-2 (UniProt Q06124); test: biotin-peptide pull-down from platelet lysate; conditions: reference: unphosphorylated peptide; sites Y211,Y237
Syk = Syk (UniProt P43405); test: biotin-peptide pull-down from platelet lysate; conditions: reference: unphosphorylated peptide; sites Y211,Y237
[11] = biological target: G6B-b dual phosphopeptide (biotinylated 60-mer, amino acids 182 to 241, pY211 and pY237) (human) (UniProt O95866); test: SPR; purified SH2 domains of Syk, PLCγ2, Src and PI3K p85 over immobilised G6B-b peptides; how the KD was obtained is not told
[12] = biological target: G6B-b dual phosphopeptide (biotinylated 60-mer, amino acids 182 to 241, pY211 and pY237) (human) (UniProt O95866); test: pull-down; direct pull down assay: peptide on Streptactin beads incubated with equimolar purified SH2 domains (100 pM [sic] each for the tandem SH2 domains), 250 µl PBS, 30 minutes, room temperature; bound and unbound fractions on Coomassie-stained gels
[13] = biological target: G6B-b pY211 phosphopeptide (biotinylated 60-mer, amino acids 182 to 241, ITIM phosphorylated) (human) (UniProt O95866); test: as above
[14] = biological target: G6B-b pY237 phosphopeptide (biotinylated 60-mer, amino acids 182 to 241, ITSM phosphorylated) (human) (UniProt O95866); test: as above
[15] = biological target: G6B-b dual phosphopeptide (biotinylated 60-mer, amino acids 182 to 241, pY211 and pY237) (human) (UniProt O95866); test: SPR; BIAcore 3000, biotinylated peptides (50 RU) on streptavidin-coated CM5 chip, single SH2 domains flowed at 10 µl/min, HBS buffer pH 7.4, 0.15 M NaCl, 37°C; KD from equilibrium binding, single site fitting
[16] = biological target: G6B-b pY211 phosphopeptide (biotinylated 60-mer, amino acids 182 to 241, ITIM phosphorylated) (human) (UniProt O95866); test: as above
[17] = biological target: G6B-b pY237 phosphopeptide (biotinylated 60-mer, amino acids 182 to 241, ITSM phosphorylated) (human) (UniProt O95866); test: as above
[18] = reference: pY211 peptide, sites Y237
[19] = reference: pY237 peptide, sites Y211
[20] = reference: unphosphorylated peptide, sites Y211,Y237

- KD (Syk SH2 domains): stronger
- binding against the reference [1, 18]: stronger
- binding against the reference [1, 19]: stronger
- binding against the reference [2]: stronger
- binding against the reference [3, 18]: stronger
- binding against the reference [3, 19]: stronger
- KD [4]: 0.0353 µM
- KD ([5]; sites Y211,Y237): 0.00048 µM
- other: share of SH2 protein bound [6, 20]: stronger
- binding against the reference [7]: stronger
- binding against the reference [8]: stronger
- other: share of SH2 protein bound [9, 18]: stronger; reference ∼50
- other: share of SH2 protein bound [9, 19]: stronger; reference ∼25
- other: share of SH2 protein bound [9, 20]: stronger
- other: share of SH2 protein bound [10]: stronger
- binding against the reference (SHP-2): gained
- binding against the reference (Syk): stronger
Substance: G6B-b 182-241 (from UniProt O95866) dual pY211/pY237 peptide
- other: share of SH2 protein bound [6, 18]: gained; reference little or no association
- other: share of SH2 protein bound [6, 19]: gained; reference little or no association

- Kd [11]: 25 µM
- percent bound [12]: 20%
Substance: Syk tandem (N+C) SH2 domains (domain or fragment)

- binding against the reference ([5]; sites Y211): stronger
- other: share of SH2 protein bound ([9]; reference: unphosphorylated peptide, sites Y211): stronger
Substance: G6B-b 182-241 (from UniProt O95866) pY211 peptide

- percent bound [12]: 40%
Substance: PLCγ2 N+C tandem SH2 domains (domain or fragment)

- percent bound [12]: 70%
- percent bound [13]: 50%
- percent bound [14]: 25%
Substance: SHP-2 (N+C)SH2 domains (His-tag) (domain or fragment)

- binding against the reference ([5]; sites Y237): stronger
- other: share of SH2 protein bound ([9]; reference: unphosphorylated peptide, sites Y237): stronger
Substance: G6B-b 182-241 (from UniProt O95866) pY237 peptide

- percent bound [12]: 30%
Substance: SHP-1 (N+C)SH2 domains (maltose binding protein-tag) (domain or fragment)

- Kd [15]: 0.13 µM
- Kd [16]: 0.11 µM
- Kd [17]: 10 µM
Substance: SHP-2 (N)SH2 (His-tag) (domain or fragment)

Reference: paper PMC3501490, “An Investigation of Hierachical Protein Recruitment to the Inhibitory Platelet Receptor, G6B-b” (PLoS ONE, 2012)
